Data: patent US6706762, “Methods for the use of inhibitors of co-repressors for the treatment of neoplastic diseases” (The Salk Institute for Biological Studies)

Assays:
[1] = target: RARα/RXRα heterodimer (UniProt P10276;P19793 P10276:1-462,P19793:1-462); experiment: EMSA; with GST-SMRT-IDII; SMRT dissociated by ATRA; 100 mM KCl, 16.7 mM Tris pH 7.5, poly(dI:dC), room temperature; details: label: 32P
Text: The protein-DNA complexes were then resolved on a 4.5% native polyacrylamide gel and visualized by autoradiography.

[2] = target: RARα 411/RXRα heterodimer (Homo sapiens, UniProt P10276;P19793 P10276:1-410,P19793:1-462, RARα stop codon introduced at amino acid 411); experiment: EMSA; with GST-SMRT-IDII; impaired dissociation of SMRT by ATRA; details: label: 32P
Chain of RARα 411/RXRα heterodimer (P10276 1-410, change not shown, chain 1 of 2): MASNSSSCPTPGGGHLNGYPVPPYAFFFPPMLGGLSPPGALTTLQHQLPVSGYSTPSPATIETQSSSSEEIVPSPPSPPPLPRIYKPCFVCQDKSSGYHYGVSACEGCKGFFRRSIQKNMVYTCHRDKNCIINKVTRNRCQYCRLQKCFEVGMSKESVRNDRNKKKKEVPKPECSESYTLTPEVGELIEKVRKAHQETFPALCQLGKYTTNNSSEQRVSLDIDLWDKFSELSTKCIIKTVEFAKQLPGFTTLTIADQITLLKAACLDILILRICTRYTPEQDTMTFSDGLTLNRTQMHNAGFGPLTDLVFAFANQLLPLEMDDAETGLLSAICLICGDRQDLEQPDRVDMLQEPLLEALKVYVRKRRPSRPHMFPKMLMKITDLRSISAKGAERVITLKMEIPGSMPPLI
Chain of RARα 411/RXRα heterodimer (P19793 whole entry, change not shown, chain 2 of 2): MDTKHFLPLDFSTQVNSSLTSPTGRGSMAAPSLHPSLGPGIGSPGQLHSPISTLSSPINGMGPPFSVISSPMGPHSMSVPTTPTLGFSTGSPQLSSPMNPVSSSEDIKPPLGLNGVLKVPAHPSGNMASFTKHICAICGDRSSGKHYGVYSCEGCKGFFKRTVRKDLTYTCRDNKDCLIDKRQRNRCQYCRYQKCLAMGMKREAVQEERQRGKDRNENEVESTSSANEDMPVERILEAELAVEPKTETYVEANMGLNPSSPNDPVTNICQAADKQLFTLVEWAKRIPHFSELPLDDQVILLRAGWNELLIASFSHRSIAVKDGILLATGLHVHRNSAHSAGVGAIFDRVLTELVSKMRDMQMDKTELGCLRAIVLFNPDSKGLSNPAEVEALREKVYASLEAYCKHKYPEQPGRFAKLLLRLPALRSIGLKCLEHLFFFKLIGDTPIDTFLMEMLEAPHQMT

Chain of RARα/RXRα heterodimer (P10276 whole entry, chain 1 of 2): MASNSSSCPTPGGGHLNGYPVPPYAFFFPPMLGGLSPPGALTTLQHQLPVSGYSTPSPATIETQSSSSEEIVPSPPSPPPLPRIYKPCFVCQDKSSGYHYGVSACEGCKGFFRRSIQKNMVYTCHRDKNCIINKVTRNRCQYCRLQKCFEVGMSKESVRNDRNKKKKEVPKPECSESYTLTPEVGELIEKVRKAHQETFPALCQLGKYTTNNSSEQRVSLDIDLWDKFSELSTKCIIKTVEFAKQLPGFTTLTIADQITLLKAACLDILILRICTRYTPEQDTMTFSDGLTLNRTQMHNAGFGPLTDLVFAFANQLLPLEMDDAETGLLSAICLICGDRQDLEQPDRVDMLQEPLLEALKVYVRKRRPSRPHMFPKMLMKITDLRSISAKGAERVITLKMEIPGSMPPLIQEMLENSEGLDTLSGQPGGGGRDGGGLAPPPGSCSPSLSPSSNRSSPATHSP
Chain of RARα/RXRα heterodimer (P19793 whole entry, chain 2 of 2): as the sequence (P19793 whole entry, change not shown, chain 2 of 2) above

B1: DR5 retinoid response element (dsDNA)
DNA 1: TCGACTCAGGTCACCACGAGGTCAGAGTC
DNA 2: GACTCTGACCTCGTGGTGACCTGAGTCGA
Q: Does B1 bind [1]?
A: Result: binds

Q: Does B1 bind [2]?
A: Result: binds
